In patent US11278600B2, “Human alpha-galactosidase variants” (Codexis, Inc., priority 2014, dated 2022):
Positions count from the first letter of the chain named.

B1: 452 (protein)
chain: LDNGLARTPTMGWLHWERFMCNLDCQEEPDSCISEKLFMEMAERMVSEGWKDAGYEYLCIDDCWMAPQRDSEGRLQADPQRFPHGIRQLANYVHSKGLKLGIYADVGNKTCAGFPGSFGYYDIDAQTFADWGVDLLKFDGCYCDSLENLADGYKHMSLALNRTGRSIVYSCEWPLYMWPFQKPNYTEIRQYCNHWRNFADIDDSWKSIKSILDWTSRNQERIVDVAGPGGWNDPDMLVIGNFGLSWDQQVTQMALWAIMAAPLFMSNDLRRISPQAKALLQDKDVIAINQDPLGKQGYQLRKGDNFEVWERPLSGDAWAVAIINRQEIGGPRSYTIPVASLGKGVACNPACFITQLLPVKRQLGFYNWTSRLKSHINPTGTVLLQLENTMQMSLKDLL
modifications: Synthetic Polypeptide sequence of Variant No. 452 of mature Human GLA
B2: 461 (protein)
chain: B1 chain with R271H, M392Q
modifications: Synthetic Polypeptide sequence of Variant No. 461 of mature Human GLA
B3: 457 (protein)
chain: B1 chain with R271H, M392A
modifications: Synthetic Polypeptide sequence of Variant No. 457 of mature Human GLA
B4: 456 (protein)
chain: B1 chain with R271H, T389M
modifications: Synthetic Polypeptide sequence of Variant No. 456 of mature Human GLA
B5: 462 (protein)
chain: B1 chain with R271H, Q385L
modifications: Synthetic Polypeptide sequence of Variant No. 462 of mature Human GLA
B6: 367 (protein)
chain: B1 chain with M39R, R271H
modifications: Synthetic Polypeptide sequence of Variant No. 367 of mature Human GLA
B7: 454 (protein)
chain: B1 chain with R271H, M390P
modifications: Synthetic Polypeptide sequence of Variant No. 454 of mature Human GLA
B8: 453 (protein)
chain: B1 chain with R270L, R271H
modifications: Synthetic Polypeptide sequence of Variant No. 453 of mature Human GLA
B9: 463 (protein)
chain: B1 chain with R271H, M390T
modifications: Synthetic Polypeptide sequence of Variant No. 463 of mature Human GLA
B10: 459 (protein)
chain: B1 chain with R271H, M390H
modifications: Synthetic Polypeptide sequence of Variant No. 459 of mature Human GLA
B11: 460 (protein)
chain: B1 chain with R271H, L386T
modifications: Synthetic Polypeptide sequence of Variant No. 460 of mature Human GLA
B12: 455 (protein)
chain: B1 chain with R271H, M392D
modifications: Synthetic Polypeptide sequence of Variant No. 455 of mature Human GLA

Tests used:
Format in all cases: biochemical
[1] = HTP-analysis of yeast culture supernatants, no challenge (MUGal hydrolysis); settings: activity of the variant/activity of Rd4BB (SEQ ID NO: 15)
In short: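 GLA variants were expressed in INVSc1 yeast grown in SD-Ura broth with glucose at 30° C., and culture supernatants were collected after 66-84 h. Supernatant was mixed with McIlvaine buffer pH 4.8 and MUGal (2 mM stock) in 50 mM citrate, 200 mM KCl, pH 4.6, incubated at 37° C. for 30-180 minutes, then quenched with sodium carbonate.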

[2] = HTP-analysis of supernatants pretreated with acid (MUGal hydrolysis); settings: activity of the variant/activity of Rd4BB (SEQ ID NO: 15); challenge at pH 3.7
In short: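 Fluorescence of MUGal hydrolysis (Ex. 355 nm, Em. 448 nm) is read after sodium carbonate quench. The enzyme source is INVSc1 yeast culture supernatant, first exposed to pH 3.3-4.3 McIlvaine buffer at 37° C. for 1-3 h, then reacted at pH 4.8 for 30-180 minutes.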

[3] = HTP-analysis of supernatants pretreated with base (MUGal hydrolysis); settings: activity of the variant/activity of Rd4BB (SEQ ID NO: 15); challenge at pH 9.65
In short: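 GLA variants were secreted by transformed INVSc1 yeast grown 66-84 h at 30° C. Supernatants were exposed to neutral-to-basic buffers (pH 7.0-9.7) at 37° C for 1-18 h, then assayed with MUGal in acidic citrate/McIlvaine buffer, with fluorescence read after quenching.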

| Molecule | Relative Activity of GLA Variants After No Challenge (NC) [1] | Relative Activity of GLA Variants After Challenge at pH 3.7 [2] | Relative Activity of GLA Variants After Challenge at pH 9.65 [3] |
| --- | --- | --- | --- |
| B1 | + (0.5 to 1.5 relative activity over Rd4BB (SEQ ID NO: 15)) | ++ (>1.5 to 2.5 relative activity over Rd4BB (SEQ ID NO: 15)) | + (0.5 to 1.5 relative activity over Rd4BB (SEQ ID NO: 15)) |
| B2 | + (0.5 to 1.5 relative activity over Rd4BB (SEQ ID NO: 15)) | + (0.5 to 1.5 relative activity over Rd4BB (SEQ ID NO: 15)) | + (0.5 to 1.5 relative activity over Rd4BB (SEQ ID NO: 15)) |
| B3 | + (0.5 to 1.5 relative activity over Rd4BB (SEQ ID NO: 15)) | + (0.5 to 1.5 relative activity over Rd4BB (SEQ ID NO: 15)) | + (0.5 to 1.5 relative activity over Rd4BB (SEQ ID NO: 15)) |
| B4 | + (0.5 to 1.5 relative activity over Rd4BB (SEQ ID NO: 15)) | + (0.5 to 1.5 relative activity over Rd4BB (SEQ ID NO: 15)) | + (0.5 to 1.5 relative activity over Rd4BB (SEQ ID NO: 15)) |
| B5 | + (0.5 to 1.5 relative activity over Rd4BB (SEQ ID NO: 15)) | + (0.5 to 1.5 relative activity over Rd4BB (SEQ ID NO: 15)) | + (0.5 to 1.5 relative activity over Rd4BB (SEQ ID NO: 15)) |
| B6 | + (0.5 to 1.5 relative activity over Rd4BB (SEQ ID NO: 15)) | + (0.5 to 1.5 relative activity over Rd4BB (SEQ ID NO: 15)) | − (<0.5 relative activity over Rd4BB (SEQ ID NO: 15)) |
| B7 | + (0.5 to 1.5 relative activity over Rd4BB (SEQ ID NO: 15)) | ++ (>1.5 to 2.5 relative activity over Rd4BB (SEQ ID NO: 15)) | + (0.5 to 1.5 relative activity over Rd4BB (SEQ ID NO: 15)) |
| B8 | + (0.5 to 1.5 relative activity over Rd4BB (SEQ ID NO: 15)) | − (<0.5 relative activity over Rd4BB (SEQ ID NO: 15)) | − (<0.5 relative activity over Rd4BB (SEQ ID NO: 15)) |
| B9 | + (0.5 to 1.5 relative activity over Rd4BB (SEQ ID NO: 15)) | + (0.5 to 1.5 relative activity over Rd4BB (SEQ ID NO: 15)) | + (0.5 to 1.5 relative activity over Rd4BB (SEQ ID NO: 15)) |
| B10 | + (0.5 to 1.5 relative activity over Rd4BB (SEQ ID NO: 15)) | ++ (>1.5 to 2.5 relative activity over Rd4BB (SEQ ID NO: 15)) | + (0.5 to 1.5 relative activity over Rd4BB (SEQ ID NO: 15)) |
| B11 | + (0.5 to 1.5 relative activity over Rd4BB (SEQ ID NO: 15)) | + (0.5 to 1.5 relative activity over Rd4BB (SEQ ID NO: 15)) | + (0.5 to 1.5 relative activity over Rd4BB (SEQ ID NO: 15)) |
| B12 | + (0.5 to 1.5 relative activity over Rd4BB (SEQ ID NO: 15)) | + (0.5 to 1.5 relative activity over Rd4BB (SEQ ID NO: 15)) | + (0.5 to 1.5 relative activity over Rd4BB (SEQ ID NO: 15)) |
